Consider 53 substances from the supplement of paper PMC12042874.

± gives the uncertainty stated by the source.

The data set is described as follows: amyloid nucleation score (Sup35N fusion, yeast selection) (log enrichment); library NNK3; higher = more nucleation; inactive = no reads after selection. The essentials: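 In psi-negative yeast, Sup35N fusions carrying peptides of 20 random codons were induced with 100 μM copper sulfate for 24 hours. The cells then grew 7 days at 30°C on medium lacking adenine and uracil, and plasmid inserts from input and output were Illumina-sequenced, excluding sequences with under 100 input reads. Nucleation score is the DiMSum log enrichment of output over input reads, centred on the mode score of non-aggregating sequences.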
As for TRLCFIAVPLSFFMVWDTSR, the amyloid nucleation score result was “inactive”.

Take TRLSSFRKIKEIYLLTQWKP: the amyloid nucleation score entry was “inactive”.

Consider TRNIMRSIMVPSTWRVFITV, for which the amyloid nucleation score result is “inactive”.

With TRNMIMRRKSTLRHLVTEAD, the amyloid nucleation score result is “inactive”.

For TRRGSDLPSVLAMFLSKSTR, the amyloid nucleation score result was “inactive”.

Regarding TRRSKGQFIYCPSNGMKCSG, the amyloid nucleation score entry was “inactive”.

On to TRSRFWRRTKLPLVSVRYHN, for which the amyloid nucleation score result is “inactive”.

For the substance TRSVFIHVYW, the amyloid nucleation score was 0.095 ± 0.5.

As to TRWRLSVYERVGARRDTPLC, the amyloid nucleation score result was “inactive”.

As for TRWRSLSEGPSVGLEITPRF, the amyloid nucleation score result was “inactive”.

Substance TRYCVVNW displayed an amyloid nucleation score of -0.511 ± 0.56.

In the case of TRYPFQWLLRVGWKGAHLGM, the amyloid nucleation score entry is “inactive”.

As for TSFGMSTPCQAFARSVDDRG, the amyloid nucleation score entry was “inactive”.

With TSGGTFQDATSHNSNSHMWK, the amyloid nucleation score entry is “inactive”.

For the substance TSGWEFRRFPNFQLLILSCF, the amyloid nucleation score entry is “inactive”.

Take TSLEN: the amyloid nucleation score entry was “inactive”.

Turning to TSLGNGVSHGTLGFILTVNT, the amyloid nucleation score entry is “inactive”.

Turning to TSNALYLLLLRHLYNMLLHV, the amyloid nucleation score result is “inactive”.

As for TSRTGRMEYISRELGQRVWM, the amyloid nucleation score result is “inactive”.

Take TSSWYFILDVHCGSEGNSEA: the amyloid nucleation score stood at 0.438 ± 0.28.

As for TTCYTLFSTDENDNSKWICG, the amyloid nucleation score result was “inactive”.

Regarding TTKQKV, the amyloid nucleation score result was “inactive”.

On to TTNSQAWPMLTAVRLVYNEG, for which the amyloid nucleation score result was “inactive”.

In the case of TTRRSTYGFEIKYILIVFVH, the amyloid nucleation score entry is “inactive”.

For TTSLMSKVFY, the amyloid nucleation score result was “inactive”.

Substance TTTFKLGISKSLDVSTRLRG returned an amyloid nucleation score of 0.31 ± 0.14.

Regarding TVAMR, the amyloid nucleation score result was “inactive”.

For TVFLDIISDVLILGGVRCRR, the amyloid nucleation score was found to be 1.26 ± 0.13.

In turn, TVGVTYIKVWNVPNILYRGC yielded an amyloid nucleation score of 0.769 ± 0.15.

TVLCAC: the amyloid nucleation score result is “inactive”.

On to TVLCRYVAYLVVSANYLDEC, for which the amyloid nucleation score result is “inactive”.

As to TVMLRRTRYVVYTVYRVVDV, the amyloid nucleation score result was “inactive”.

With TVMVKSSYGLNCFGRSF, the amyloid nucleation score was 0.743 ± 0.13.

For the substance TVNHDAIRELTDTSTDIFMS, the amyloid nucleation score result was “inactive”.

In the case of TVPFTPIICESVFSD, the amyloid nucleation score result was “inactive”.

Take TVPVSSCGGLRNEPHDVRFG: the amyloid nucleation score entry was “inactive”.

TVRFEGIGSHVRHTFCALDF: the amyloid nucleation score result is “inactive”.

Regarding TVRGEVVGPSDNREKIQKQW, the amyloid nucleation score result is “inactive”.

With TVVMWSSKDREVDSIDMSFV, the amyloid nucleation score entry was “inactive”.

For TVYLACIC, the amyloid nucleation score entry was “inactive”.

On to TVYSRHIDRGYWIADGCSRV, for which the amyloid nucleation score entry was “inactive”.

With TWCFDSACNANGTWR, the amyloid nucleation score entry was “inactive”.

As for TWDICFSTLFLMPRMWFGHL, the amyloid nucleation score result was “inactive”.

Regarding TWELHV, the amyloid nucleation score is -0.428 ± 1.

On to TWLGLLCREGSSNWV, for which the amyloid nucleation score result was “inactive”.

Turning to TWRKGVSVLVLSGFVVTNQR, the amyloid nucleation score entry was “inactive”.

Consider TWSACPTLCLD, for which the amyloid nucleation score is -0.392 ± 0.98.

Take TWSSLFMIFQYTCAGCWDFK: the amyloid nucleation score came to 1.52 ± 0.068.

As for TWTMDSSLWMLWAVQVVEGR, the amyloid nucleation score result was “inactive”.

TYGGLFLVHTVYVVALNWVR: the amyloid nucleation score result is “inactive”.

For TYGSVNCVSLMCSVVVLFAM, the amyloid nucleation score result was “inactive”.

Consider TYHWLNRGYRMGSLENRLLK, for which the amyloid nucleation score result is “inactive”.

For the substance TYLGDSFSILHLIQGDWFIE, the amyloid nucleation score entry was “inactive”.
